T1: ASIC1 (Rattus norvegicus, UniProt P55926)
T1 sequence (P55926 1-526): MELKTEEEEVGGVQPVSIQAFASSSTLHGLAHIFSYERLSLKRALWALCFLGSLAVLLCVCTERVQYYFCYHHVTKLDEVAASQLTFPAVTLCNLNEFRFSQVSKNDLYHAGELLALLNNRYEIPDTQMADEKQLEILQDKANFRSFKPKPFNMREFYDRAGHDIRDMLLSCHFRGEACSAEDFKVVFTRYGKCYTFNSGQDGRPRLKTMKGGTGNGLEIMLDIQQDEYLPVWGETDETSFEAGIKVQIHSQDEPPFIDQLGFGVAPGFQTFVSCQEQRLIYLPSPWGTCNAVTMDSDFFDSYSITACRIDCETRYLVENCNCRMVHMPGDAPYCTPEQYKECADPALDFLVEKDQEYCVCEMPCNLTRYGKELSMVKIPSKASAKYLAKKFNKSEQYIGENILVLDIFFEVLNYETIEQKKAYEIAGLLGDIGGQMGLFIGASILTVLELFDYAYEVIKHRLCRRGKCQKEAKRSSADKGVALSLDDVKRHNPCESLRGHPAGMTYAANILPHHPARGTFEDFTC

T2: ASIC2a (Rattus norvegicus, UniProt Q62962)
T2 sequence (Q62962 1-512): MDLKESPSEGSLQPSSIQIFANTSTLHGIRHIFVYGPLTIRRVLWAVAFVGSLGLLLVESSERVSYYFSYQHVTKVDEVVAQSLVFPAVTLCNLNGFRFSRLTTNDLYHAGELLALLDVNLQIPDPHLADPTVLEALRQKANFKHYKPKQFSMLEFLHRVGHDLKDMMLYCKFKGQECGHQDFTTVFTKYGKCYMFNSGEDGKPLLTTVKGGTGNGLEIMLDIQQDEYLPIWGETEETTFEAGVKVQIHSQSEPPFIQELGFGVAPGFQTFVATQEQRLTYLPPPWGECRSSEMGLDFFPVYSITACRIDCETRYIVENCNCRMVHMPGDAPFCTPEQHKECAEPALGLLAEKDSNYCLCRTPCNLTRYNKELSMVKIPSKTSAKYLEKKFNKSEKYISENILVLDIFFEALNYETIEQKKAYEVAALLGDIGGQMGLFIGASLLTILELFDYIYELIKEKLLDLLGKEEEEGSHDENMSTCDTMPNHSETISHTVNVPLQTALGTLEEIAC

B1: human Acid Sensing Ion Channel 2b (hASIC2b) (protein)
chain: MSRIGGAGLPAAALTGPGRFRMAREEPAPAALAAAGQPGGGRGGERALQGPGVARRGRPSLSRAKLHGLRHMCAGRTAAGGSFQRRALWVLAFCTSFGLLLSWSSNRLLYWLSFPSHTRVHREWSRQLPFPAVTVCNNNPLRFPRLSKGDLYYAGHWLGLLLPNRTARPLVSELLRGDEPRRQWFRKLADFRLFLPPRHFEGISAAFMDRLGHQLEDMLLSCKYRGELCGPHNFSSVFTKYGKCYMFNSGEDGKPLLTTVKGGTGNGLEIMLDIQQDEYLPIWGETEETTFEAGVKVQIHSQSEPPFIQELGFGVAPGFQTFVATQEQRLTYLPPPWGECRSSEMGLDFFPVYSITACRIDCETRYIVENCNCRMVHMPGDAPFCTPEQHKECAEPALGLLAEKDSNYCLCRTPCNLTRYNKELSMVKIPSKTSAKYLEKKFNKSEKYISENILVLDIFFEALNYETIEQKKAYEVAALLGDIGGQMGLFIGASILTILELFDYIYELIKEKLLDLLGKEEDEGSHDENVSTCDTMPNHSETISHTVNVPLQTTLGTLEEIAC

Legend:
ASIC1 = biological target: T1, ASIC1; details: cited from earlier work
ASIC2a = biological target: T2, ASIC2a; details: cited from earlier work
CHO-K1 cells = test: whole-cell patch clamp recording of acid-induced currents in transfected CHO-K1 cells; type: cell-based, Chinese Hamster
Protocol: The mammalian expression vectors for hASIC2b and hASIC2a were constructed using appropriate expression vectors such as pcDNA3.1 (Clonetech) according to conventional molecular biological methods. Chinese Hamster Ovary (CHO)-K1 cells were seeded on a 35 mm dish in diameter at a density of 20,000 cells, and then transfected with various combinations of ASIC expression vectors with FuGENE6 transfection reagent (Roche) according to the manufacturer's instructions as follows: the hAISC2b expression vector alone (1 μg) for homomeric hASIC2b expression, hASIC2a and green fluorescent protein (GFP) expression vectors (1:2 molar ratio in a total of 1 μg) for hASIC2a expression, and hASIC2b/hASIC2a (1:2 molar ratio in a total of 1 μg) for heteromeric expression. Cells were used for electrophysiological measurements 2 days after the transfection. Successfully transfected cells were recognized by GFP emission signal. Ion currents were recorded using whole-cell patch clamp technique. Recording was made with an Axopatch 200B amplifier (Axon Instruments). Currents were filtered at 5 kHz and digitized by using Digidata 1321A interface. Data were interpolated using Origin6.0 (version 6.0, Microcal). Pipettes were pulled from borosilicate glass and had pipette resistances 1-4MΩ when filled with the intercellular solution. All recordings were made at room temperature (23±2° C.). […]

[1] = biological target: human Acid Sensing Ion Channel 2a (hASIC2a) (human) (UniProt Q16515); test: cell-based or functional assay

Molecule	block of ASIC1 (ASIC1)	sensitivity of cation transport by ASIC1a (ASIC1)	sensitivity of cation transport by ASIC2a (ASIC2a)	acid-induced inward currents (CHO-K1 cells; 5 sec application of low pH solution, pH 2.0-4.0, FIG. 5)	effect on acid-induced ion currents of hASIC2a (CHO-K1 cells; co-expression with hASIC2a)	pH50 value for activation (hASIC2a/hASIC2b co-expressing CHO-K1 cells) [1] [pH]	peak current density at pH2.0 (hASIC2a/hASIC2b CHO-K1 transformants) [1] [pA/pF]	peak current density at pH3.0 (hASIC2a/hASIC2b CHO-K1 transformants) [1] [pA/pF]	peak current density at pH4.0 (hASIC2a/hASIC2b CHO-K1 transformants) [1] [pA/pF]
N=C(N)NC(=O)c1nc(Cl)c(N)nc1N [amiloride]	blocked	sensitive	sensitive	–	–	–	–	–	–
CCN(c1nc(N)c(C(=O)NC(=N)N)nc1Cl)C(C)C [ethylisopropylamiloride]	blocked	–	–	–	–	–	–	–	–
B1	–	–	–	inactive	inhibitory effect	3.43	113	88.9	21
